# Literature values, collected in publication PMC6804253, “Predicting and Experimentally Validating Hot-Spot Residues at Protein–Protein Interfaces” (ACS Chemical Biology, 2019).
# Residue numbers refer to the chain shown, from its start.
# B1: 1IAR TA6A (protein, UniProt P05112 25-153, looked up, variant T6A)
# Interleukin-4: HKCDIALQEIIKTLNSLTEQKTLCTELTVTDIFAASKNTTEKETFCRAATVLRQFYSHHEKDTRCLGATAQQFHRHKQLIRFLKRLDRNLWGLAGLNSCPVKEANQSTLENFLERLKTIMREKYSKCSS
# B2: 1IAR QA8A (protein, UniProt P05112 25-153, looked up, variant Q8A)
# Interleukin-4: B1 Interleukin-4 with A6T, Q8A
# B3: 1IAR TA13A (protein, UniProt P05112 25-153, looked up, variant T13A)
# Interleukin-4: B1 Interleukin-4 with A6T, T13A
# B4: 1IAR NA15A (protein, UniProt P05112 25-153, looked up, variant N15A)
# Interleukin-4: B1 Interleukin-4 with A6T, N15A
# B5: 1IAR SA16A (protein, UniProt P05112 25-153, looked up, variant S16A)
# Interleukin-4: B1 Interleukin-4 with A6T, S16A
# B6: 1IAR NA89A (protein, UniProt P05112 25-153, looked up, variant N89A)
# Interleukin-4: B1 Interleukin-4 with A6T, N89A
# B7: 1JRH NI48A (protein, UniProt P15260 18-245, looked up, variant N48A)
# extracellular domain: EMGTADLGPSSVPTPTNVTIESYNMNPIVYWEYQIMPQVPVFTVEVKAYGVKNSEWIDACINISHHYCNISDHVGDPSNSLWVRVKARVGQKESAYAKSEEFAVCRDGKIGPPKLDIRKEEKQIMIDIFHPSVFVNGDEQEVDYDPETTCYIRVYNVYVRMNGSEIQYKILTQKEDDCDEIQCQLAIPVSSLNSQYCVSAEGVLHVWGVTTEKSKEVCITIFNSSIKG
# modifications: extracellular domain
# B8: 1JRH NI53A (protein, UniProt P15260 18-245, looked up, variant N53A)
# extracellular domain: B7 extracellular domain with A48N, N53A
# modifications: extracellular domain
# B9: 1JRH SI54A (protein, UniProt P15260 18-245, looked up, variant S54A)
# extracellular domain: B7 extracellular domain with A48N, S54A
# modifications: extracellular domain
# B10: 1REW QC86A (protein, UniProt P36894 24-152, looked up, variant Q86A)
# extracellular domain: QNLDSMLHGTGMKSDSDQKKSENGVTLAPEDTLPFLKCYCSGHCPDDAINNTCITNGHCFAIIEEDDQGETTLASGCMKYEGSDFACKDSPKAQLRRTIECCRTNLCNQYLQPTLPPVVIGPFFDGSIR
# modifications: extracellular domain
# B11: 2PCC VA197A (protein, UniProt P00431 68-361, looked up, variant V197A)
# Cytochrome c peroxidase, …: TTPLVHVASVEKGRSYEDFQKVYNAIALKLREDDEYDNYIGYGPVLVRLAWHTSGTWDKHDNTGGSYGGTYRFKKEFNDPSNAGLQNGFKFLEPIHKEFPWISSGDLFSLGGVTAVQEMQGPKIPWRCGRVDTPEDTTPDNGRLPDADKDADYVRTFFQRLNMNDREVVALMGAHALGKTHLKNSGYEGPWGAANNAFTNEFYLNLLNEDWKLEKNDANNEQWDSKSGYMMLPTDYSLIQDPKYLSIVKEYANDQDKFFKDFSKAFEKLLENGITFPKDAPSPFIFKTLEEQGL
# Tested on: PPIs of the SKEMPI data set (by PDBID)
# Conditions: SKEMPI experimental ΔΔG of binding, single mutation to alanine, PPI given by PDBID; ref SKEMPI; cited from earlier work
row,Molecule,sk_ddG_kJ [kJ]
1,B1,-0.42
2,B2,-0.08
3,B3,4.10
4,B4,-0.13
5,B5,-0.75
6,B6,6.53
7,B7,2.64
8,B8,19.71
9,B9,1.92
10,B10,11.13

# Same assay, conditions: class by ΔΔG threshold 4.184 kJ/mol; ref SKEMPI; cited from earlier work
row,Molecule,sk_class (class of SKEMPI experimental ΔΔG)
1,B11,Positive (positive (a hot residue) ΔΔG ≥ 4.184 kJ/mol)

# Same assay, conditions: class of the SKEMPI experimental ΔΔG; ref SKEMPI; cited from earlier work
row,Molecule,sk_class
1,B1,Neutral (neutral (little effect) 4.184 kJ/mol < ΔΔG > −4.184 kJ/mol)
2,B2,Neutral (neutral (little effect) 4.184 kJ/mol < ΔΔG > −4.184 kJ/mol)
3,B3,Neutral (neutral (little effect) 4.184 kJ/mol < ΔΔG > −4.184 kJ/mol)
4,B4,Neutral (neutral (little effect) 4.184 kJ/mol < ΔΔG > −4.184 kJ/mol)
5,B5,Neutral (neutral (little effect) 4.184 kJ/mol < ΔΔG > −4.184 kJ/mol)
6,B6,Positive (positive (a hot residue) ΔΔG ≥ 4.184 kJ/mol)
7,B7,Neutral (neutral (little effect) 4.184 kJ/mol < ΔΔG > −4.184 kJ/mol)
8,B8,Positive (positive (a hot residue) ΔΔG ≥ 4.184 kJ/mol)
9,B9,Neutral (neutral (little effect) 4.184 kJ/mol < ΔΔG > −4.184 kJ/mol)
10,B10,Positive (positive (a hot residue) ΔΔG ≥ 4.184 kJ/mol)

# Same assay, conditions: single mutation to alanine; complex given by PDBID; residue group in r_group; ref SKEMPI; cited from earlier work
row,Molecule,"sk_ddG_kJ (SKEMPI experimental ΔΔG, mutation to alanine) [kJ]"
1,B11,8.74
